Test results published in US20250215412A1 (NOVOZYMES A S, published 2025).

T1: Chryseobacterium sp-62563 deamidase polypeptide (second polypeptide, deamidase domain), wildtype (Chryseobacterium sp-62563)
T1 sequence: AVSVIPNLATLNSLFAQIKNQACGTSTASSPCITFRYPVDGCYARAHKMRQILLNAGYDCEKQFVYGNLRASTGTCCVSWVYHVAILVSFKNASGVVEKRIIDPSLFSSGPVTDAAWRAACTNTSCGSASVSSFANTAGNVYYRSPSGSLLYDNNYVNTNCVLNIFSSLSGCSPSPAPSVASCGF


The binders below were run against T1, Chryseobacterium sp-62563 deamidase polypeptide (second polypeptide, deamidase domain), wildtype (Chryseobacterium sp-62563) (assay: cell-based or functional assay).

Binder	Leakage activity [%]	Relative activity of maturated deamidase (% initial rate)
Chryseobacterium sp-62563 propeptide E52P (protein) NQDPNLVAKESNETAMKDFGKTVPVGIEKEDGKFKISFMVTAQPYEIKDSKPNAAYISMIKTAVENETPIHVFLKANTNEIAKVDKATDDDIRYFKSVFTKEVKEENRK	0	
Chryseobacterium sp-62563 propeptide K86G (protein) NQDPNLVAKESNETAMKDFGKTVPVGIEKEDGKFKISFMVTAQPYEIKDSKENAAYISMIKTAVENETPIHVFLKANTNEIAKVDGATDDDIRYFKSVFTKEVKEENRK	0	34
Chryseobacterium sp-62563 propeptide F73T (protein) NQDPNLVAKESNETAMKDFGKTVPVGIEKEDGKFKISFMVTAQPYEIKDSKENAAYISMIKTAVENETPIHVTLKANTNEIAKVDKATDDDIRYFKSVFTKEVKEENRK	0	42
Chryseobacterium sp-62563 propeptide F73D (protein) NQDPNLVAKESNETAMKDFGKTVPVGIEKEDGKFKISFMVTAQPYEIKDSKENAAYISMIKTAVENETPIHVDLKANTNEIAKVDKATDDDIRYFKSVFTKEVKEENRK	2	31
Chryseobacterium sp-62563 propeptide E67P (protein) NQDPNLVAKESNETAMKDFGKTVPVGIEKEDGKFKISFMVTAQPYEIKDSKENAAYISMIKTAVENPTPIHVFLKANTNEIAKVDKATDDDIRYFKSVFTKEVKEENRK	2	53
Chryseobacterium sp-62563 propeptide A76P (protein) NQDPNLVAKESNETAMKDFGKTVPVGIEKEDGKFKISFMVTAQPYEIKDSKENAAYISMIKTAVENETPIHVFLKPNTNEIAKVDKATDDDIRYFKSVFTKEVKEENRK	3	

The remaining lines, values ahead:

Leakage activity [%]	Relative activity of maturated deamidase (% initial rate)	Binder
0	40	Chryseobacterium sp-62563 propeptide L74S (protein) NQDPNLVAKESNETAMKDFGKTVPVGIEKEDGKFKISFMVTAQPYEIKDSKENAAYISMIKTAVENETPIHVFSKANTNEIAKVDKATDDDIRYFKSVFTKEVKEENRK
0	> 100	Chryseobacterium sp-62563 propeptide P69Y (protein) NQDPNLVAKESNETAMKDFGKTVPVGIEKEDGKFKISFMVTAQPYEIKDSKENAAYISMIKTAVENETYIHVFLKANTNEIAKVDKATDDDIRYFKSVFTKEVKEENRK
0	49	Chryseobacterium sp-62563 propeptide V64L (protein) NQDPNLVAKESNETAMKDFGKTVPVGIEKEDGKFKISFMVTAQPYEIKDSKENAAYISMIKTALENETPIHVFLKANTNEIAKVDKATDDDIRYFKSVFTKEVKEENRK
0	> 100	Chryseobacterium sp-62563 propeptide P69W (protein) NQDPNLVAKESNETAMKDFGKTVPVGIEKEDGKFKISFMVTAQPYEIKDSKENAAYISMIKTAVENETWIHVFLKANTNEIAKVDKATDDDIRYFKSVFTKEVKEENRK
0	46	Chryseobacterium sp-62563 propeptide T88P (protein) NQDPNLVAKESNETAMKDFGKTVPVGIEKEDGKFKISFMVTAQPYEIKDSKENAAYISMIKTAVENETPIHVFLKANTNEIAKVDKAPDDDIRYFKSVFTKEVKEENRK
0		Chryseobacterium sp-62563 propeptide V7P (protein) NQDPNLPAKESNETAMKDFGKTVPVGIEKEDGKFKISFMVTAQPYEIKDSKENAAYISMIKTAVENETPIHVFLKANTNEIAKVDKATDDDIRYFKSVFTKEVKEENRK
